US20060002925A1 (ZymoGenetics, published 2006)

Tests used:
human ZcytoR14 = molecular target: T1, human ZcytoR14 (human, UniProt Q8NAC3 21-791); assay: cell-based or functional assay
T1 sequence: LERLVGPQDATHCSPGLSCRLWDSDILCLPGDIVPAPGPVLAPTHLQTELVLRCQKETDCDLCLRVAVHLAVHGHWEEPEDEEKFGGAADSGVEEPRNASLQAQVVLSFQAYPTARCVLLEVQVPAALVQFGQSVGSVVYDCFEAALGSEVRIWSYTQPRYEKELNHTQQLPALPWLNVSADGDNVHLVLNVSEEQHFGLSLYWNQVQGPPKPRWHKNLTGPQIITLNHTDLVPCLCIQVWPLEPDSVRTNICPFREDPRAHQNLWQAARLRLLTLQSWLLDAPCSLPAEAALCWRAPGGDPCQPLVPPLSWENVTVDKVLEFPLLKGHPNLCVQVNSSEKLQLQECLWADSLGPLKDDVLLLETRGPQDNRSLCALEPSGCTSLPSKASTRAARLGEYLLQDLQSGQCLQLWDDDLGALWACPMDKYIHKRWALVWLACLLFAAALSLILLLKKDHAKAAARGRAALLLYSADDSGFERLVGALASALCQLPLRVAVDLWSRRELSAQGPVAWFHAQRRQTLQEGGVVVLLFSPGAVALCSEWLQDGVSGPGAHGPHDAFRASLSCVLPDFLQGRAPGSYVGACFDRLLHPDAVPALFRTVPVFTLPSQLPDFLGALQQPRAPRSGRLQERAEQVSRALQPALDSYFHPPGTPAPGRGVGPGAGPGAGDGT

human IL-17 receptor = molecular target: T2, human IL-17 receptor (human, UniProt Q96F46 33-320); assay: cell-based or functional assay
T2 sequence: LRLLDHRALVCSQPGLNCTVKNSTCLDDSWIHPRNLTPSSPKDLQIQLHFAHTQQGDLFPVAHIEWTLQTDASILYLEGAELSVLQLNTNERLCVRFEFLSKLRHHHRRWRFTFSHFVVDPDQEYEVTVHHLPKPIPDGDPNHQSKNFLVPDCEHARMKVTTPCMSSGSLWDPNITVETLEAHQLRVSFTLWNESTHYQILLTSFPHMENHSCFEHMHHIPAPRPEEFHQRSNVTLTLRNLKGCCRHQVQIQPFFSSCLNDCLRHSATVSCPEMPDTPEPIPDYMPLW

B1: human IL-17F (ligand)
chain: RKIPKVGHTFFQKPESCPPVPGGSMKLDIGIINENQRVSMSRNIESRSTSPWNYTVTWDPNRYPSEVVQAQCRNLGCINAQGKEDISMNSVPIQQETLVVRRKHQGCSVSFQLEKVLVTVGCTCVTPVIHHVQ
modifications: biotinylated (Example 10) or 125I-radiolabeled by the iodobead method (Example 11) when used as tracer; unlabeled as cold competitor
EC50 of ap1/nfkb luciferase activation in the hIL-17RCX1 recombinant line (human ZcytoR14): 0.61 ng/mL | fold more potent EC50 in the recombinant line against the parental line (human ZcytoR14): 17 fold | EC50 of ap1/nfkb luciferase activation in nih3t3/kz142.8/IL-17R cells (human IL-17 receptor): 12.4 ng/mL
